# In US20220193132A1 (NATIONAL RESEARCH COUNCIL OF CANADA, published 2022):
# Columns and labels:
# [1] = biological target: T1, EGFRvIII, full length, overexpressed on glioblastoma cells (human, UniProt P00533 298-623); assay: flow cytometry dose-response on U87MG-EGFRvIII cells, apparent Kd
# T1 construct: Cells overexpress full length EGFRvIII (deletion of exons 2-7 of EGFR); Cell line (U87MG or DKMG) is named under assay; also called U87MG-EGFRvIII; U87vIII
# Experimental: Prior to analysis, cells were plated such that they were not more than 80% confluent on the day of analysis. Unless otherwise stated, all media are kept are 4° C. and all incubations are performed on wet ice. Cells were washed in PBS, harvested by the addition of cell dissociation buffer (Sigma), centrifuged and resuspended in complete medium at a cell density of 2×10⁶ cells/mL. Fifty μL/well of cells were distributed in a polypropylene v-bottom 96 well plate and serial 1/3 dilutions of purified mAbs starting at 100 nM were added and incubated for 2 hours. […] Cells were washed and re-suspended in medium containing Propidium iodide to exclude dead cells from analysis. Samples were filtered through a 60 μm nylon mesh filter plate (Millipore, Ireland) to remove cell aggregates. Flow cytometry analyses were performed on 2,000 viable single-cells events gated on forward scattering, side scattering parameters and propidium iodide dye exclusion using a BD-LSRFortessa flow cytometer (Becton-Dickinson Biosciences, CA, USA) and a standard filter set using BD FACSDiva™ acquisition software, according to manufacturer's instructions.
# Specific detection of antibody binding was calculated as the mean fluorescent intensity of binding to each primary antibody after background level subtraction of the mean fluorescent intensity of binding of mouse IgG control. The data were analyzed with GraphPad Prism v 6.0 software using one-site specific binding with Hill slope non-linear regression curve fit model to determine Bmax (maximum specific binding) and Kdₐₚₚ (concentration needed to achieve a half-maximum binding at equilibrium) for each mAb tested.
# [2] = biological target: T2, EGFRvIII amino acid residues 15 to 37 with Cys16 to Ala mutation (human); assay: yeast display flow cytometry, Myc-normalized;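 note: Anti-EGFRvIII monoclonal antibodies tested by flow cytometry on yeast displaying alanine-substituted fragments, two-color indirect fluorescence with anti-Myc signal tracking fusion protein expression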
# T2 construct: mutation is already in the entry
# T2 peptide: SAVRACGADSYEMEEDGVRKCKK
# Text: (§1) Assessment of the binding of anti-EGFRvIII mAbs to the fusion proteins expressed on yeast cell surface was done by flow cytometry analysis. Briefly, yeast cells were labeled with both the anti-hEGFRvIII mAb and chicken anti-Myc antibody, the latter being used to monitor the level of expression of the fusion protein. Following a wash step, binding of the primary antibodies is probed by a two-color indirect fluorescence labeling using secondary antibodies specific for mouse and chicken antibodies, respectively.
# (§2) To further characterize mAb epitopes within the EGFRvIII 15-37 region, an alanine scan of this region was performed, and modified fragments were expressed at the surface of the yeast. […] The resulting peptides were expressed at the surface of the yeast and each anti-EGFRvIII mAbs was tested on the corresponding yeast mutant strain by flow cytometry analysis. Thus, this assay determined the contribution of each amino acid(s) in the monoclonal antibody binding.
# [3] = biological target: T3, EGFRvIII amino acid residues 15 to 37 with Asp23 to Ala mutation (human); assay: yeast display flow cytometry, Myc-normalized;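 note: Anti-EGFRvIII monoclonal antibodies tested by flow cytometry on yeast displaying alanine-substituted fragments, two-color indirect fluorescence with anti-Myc signal tracking fusion protein expression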
# T3 construct: mutation is already in the entry
# T3 peptide: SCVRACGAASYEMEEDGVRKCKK
# Text: as §1, §2
# [4] = biological target: T4, EGFRvIII amino acid residues 15 to 37 with Glu29 to Ala mutation (human); assay: yeast display flow cytometry, Myc-normalized;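 note: Anti-EGFRvIII monoclonal antibodies tested by flow cytometry on yeast displaying alanine-substituted fragments, two-color indirect fluorescence with anti-Myc signal tracking fusion protein expression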
# T4 construct: mutation is already in the entry
# T4 peptide: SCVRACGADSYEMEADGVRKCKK
# Text: as §1, §2
# [5] = biological target: T5, EGFRvIII amino acid residues 15 to 37 with Arg18 to Ala mutation (human); assay: yeast display flow cytometry, Myc-normalized;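 note: Anti-EGFRvIII monoclonal antibodies tested by flow cytometry on yeast displaying alanine-substituted fragments, two-color indirect fluorescence with anti-Myc signal tracking fusion protein expression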
# T5 construct: mutation is already in the entry
# T5 peptide: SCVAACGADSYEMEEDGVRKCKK
# Text: as §1, §2
# [6] = biological target: T6, EGFRvIII amino acid residues 15 to 37 with Gly21 to Ala mutation (human); assay: yeast display flow cytometry, Myc-normalized
# T6 construct: mutation is already in the entry
# T6 peptide: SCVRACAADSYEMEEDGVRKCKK
# Text: as §1, §2
# [7] = biological target: T7, EGFRvIII amino acid residues 15 to 37 with Val32 to Ala mutation (human); assay: yeast display flow cytometry, Myc-normalized
# T7 construct: mutation is already in the entry
# T7 peptide: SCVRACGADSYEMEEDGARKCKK
# Text: as §1, §2
# [8] = biological target: T8, EGFRvIII amino acid residues 15 to 37 with Lys36 to Ala mutation (human); assay: yeast display flow cytometry, Myc-normalized
# T8 construct: mutation is already in the entry
# T8 peptide: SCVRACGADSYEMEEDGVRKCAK
# Text: as §1, §2
# [9] = biological target: T9, EGFRvIII amino acid residues 15 to 37 with Ser15 to Ala mutation (human); assay: yeast display flow cytometry, Myc-normalized
# T9 construct: mutation is already in the entry
# T9 peptide: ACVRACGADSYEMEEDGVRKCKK
# Text: as §1, §2
# [10] = biological target: T10, EGFRvIII amino acid residues 15 to 37 with Val17 to Ala mutation (human); assay: yeast display flow cytometry, Myc-normalized
# T10 construct: mutation is already in the entry
# T10 peptide: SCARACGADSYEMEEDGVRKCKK
# Text: as §1, §2
# [11] = biological target: T11, EGFRvIII amino acid residues 15 to 37 with Lys37 to Ala mutation (human); assay: yeast display flow cytometry, Myc-normalized
# T11 construct: mutation is already in the entry
# T11 peptide: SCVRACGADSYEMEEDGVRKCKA
# Text: as §1, §2
# [12] = biological target: T12, EGFRvIII amino acid residues 15 to 37 with Lys34 to Ala mutation (human); assay: yeast display flow cytometry, Myc-normalized
# T12 construct: mutation is already in the entry
# T12 peptide: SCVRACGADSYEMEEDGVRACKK
# Text: as §1, §2
# [13] = biological target: T13, EGFRvIII amino acid residues 15 to 37 with Tyr25 to Ala mutation (human); assay: yeast display flow cytometry, Myc-normalized
# T13 construct: mutation is already in the entry
# T13 peptide: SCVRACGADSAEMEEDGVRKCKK
# Text: as §1, §2
# [14] = biological target: T14, EGFRvIII amino acid residues 15 to 37 with Glu28 to Ala mutation (human); assay: yeast display flow cytometry, Myc-normalized
# T14 construct: mutation is already in the entry
# T14 peptide: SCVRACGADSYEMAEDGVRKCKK
# Text: as §1, §2
# [15] = biological target: T15, EGFRvIII amino acid residues 15 to 37 with Met27 to Ala mutation (human); assay: yeast display flow cytometry, Myc-normalized
# T15 construct: mutation is already in the entry
# Text: as §1, §2
# [16] = biological target: T16, EGFRvIII amino acid residues 15 to 37 with Ser24 to Ala mutation (human); assay: yeast display flow cytometry, Myc-normalized
# T16 construct: mutation is already in the entry
# T16 peptide: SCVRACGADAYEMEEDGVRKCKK
# Text: as §1, §2
# [17] = biological target: T17, recombinant human EGFRvIII protein (extracellular domain), native (human, UniProt P00533 298-623); assay: ELISA Exp 1, mAb supernatant
# T17 construct: also called hEGFRvIII
# [18] = biological target: T18, recombinant human EGFRvIII protein (extracellular domain), denatured (human, UniProt P00533 298-623); assay: ELISA Exp 1, mAb supernatant
# T18 construct: Same protein as m21 after 95 C for 5 min in PBS with 40 mM DTT (denatured, reduced); also called EGFRvIII Denatured
# [19] = biological target: T19, recombinant human wild type EGFR protein (extracellular domain), native (human, UniProt P00533 25-645); assay: ELISA Exp 1, mAb supernatant
# T19 construct: also called wt EGFR; EGFR WT
# [20] = biological target: T20, recombinant human wild type EGFR protein (extracellular domain), denatured (human, UniProt P00533 25-645); assay: ELISA Exp 1, mAb supernatant
# T20 construct: Same protein as m23 after 95 C for 5 min in PBS with 40 mM DTT (denatured, reduced); also called wt EGFR Denatured
# [21] = biological target: T21, EGFRvIII amino acid residues 15 to 37 with Cys20 to Ala mutation (human); assay: yeast display flow cytometry, alanine scan
# T21 construct: mutation is already in the entry
# T21 peptide: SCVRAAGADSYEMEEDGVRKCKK
# Text: as §1, §2
# [22] = biological target: T22, EGFRvIII amino acid residues 15 to 37 with Cys35 to Ala mutation (human); assay: yeast display flow cytometry, alanine scan
# T22 construct: mutation is already in the entry
# T22 peptide: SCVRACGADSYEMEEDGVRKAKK
# Text: as §1, §2
# [23] = biological target: T23, EGFRvIII amino acid residues 15 to 37 with Glu26 to Ala mutation (human); assay: yeast display flow cytometry, alanine scan
# T23 construct: mutation is already in the entry
# T23 peptide: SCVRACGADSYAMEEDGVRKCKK
# Text: as §1, §2
# [24] = biological target: T24, EGFRvIII amino acid residues 15 to 37 with Asp30 to Ala mutation (human); assay: yeast display flow cytometry, alanine scan
# T24 construct: mutation is already in the entry
# T24 peptide: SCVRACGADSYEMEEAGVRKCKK
# Text: as §1, §2
# [25] = biological target: T25, EGFRvIII amino acid residues 15 to 37 with Gly31 to Ala mutation (human); assay: yeast display flow cytometry, alanine scan
# T25 construct: mutation is already in the entry
# T25 peptide: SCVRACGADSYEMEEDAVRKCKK
# Text: as §1, §2
# [26] = biological target: T26, EGFRvIII amino acid residues 15 to 37 with Arg33 to Ala mutation (human); assay: yeast display flow cytometry, alanine scan
# T26 construct: mutation is already in the entry
# T26 peptide: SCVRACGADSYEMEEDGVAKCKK
# Text: as §1, §2
# [27] = biological target: T17, recombinant human EGFRvIII protein …; assay: ELISA Exp 2, purified mAb 1 ug/ml;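 note: ELISA of purified mAb binding to plate-coated antigen, native or heat/DTT-denatured, with pNPP substrate developed for 30 min and incubations at room temperature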
# [28] = biological target: T18, recombinant human EGFRvIII protein …; assay: ELISA Exp 2, purified mAb 1 ug/ml;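 note: ELISA of purified mAb binding to plate-coated antigen, native or heat/DTT-denatured, with pNPP substrate developed for 30 min and incubations at room temperature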
# [29] = biological target: T19, recombinant human wild type EGFR …; assay: ELISA Exp 2, purified mAb 1 ug/ml;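 note: ELISA of purified mAb binding to plate-coated antigen, native or heat/DTT-denatured, with pNPP substrate developed for 30 min and incubations at room temperature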
# [30] = biological target: T20, recombinant human wild type EGFR …; assay: ELISA Exp 2, purified mAb 1 ug/ml;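 note: ELISA of purified mAb binding to plate-coated antigen, native or heat/DTT-denatured, with pNPP substrate developed for 30 min and incubations at room temperature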
# [31] = biological target: T27, EGFRvIII fragment amino acid residues 19 to 37, displayed on yeast (human); assay: yeast surface display, flow cytometry
# T27 construct: also called aa 19-37
# T27 peptide: ACGADSYEMEEDGVRKCKK
# Text: as §1
# [32] = biological target: T1, EGFRvIII, full length, overexpressed on …; assay: cell-based or functional assay
# [33] = biological target: wild type human EGFR, full length, overexpressed on U87MG cells (human, UniProt P00533 25-1210); assay: cell-based or functional assay
# T15 sequence (peptide, as listed by the source, change not shown): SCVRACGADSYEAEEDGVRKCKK
binder,measurement,setting,value
"F263-4E11 (antibody, V domains shown, Mouse hybridoma mAb) VH: DVQLQESGPGLVKPSQSLSLTCTVTGYSITSDYAWNWIRQFPGNKLEWMGYIGYNGRTSYNPSLKSRISITRDTSKNQFFLQLNYVTTEDTATFYCARLGRGFAYWGQGTLVTVSA VL: DILMTQSPSSMSVSLGDTVSITCHASQGINSNIGWLLQKPGKSFKGLIYHGTNLEDGVPSRFSGSGSGTDYSLTISSLESEDFADYYCVQYAQFPYTFGGGTKLEIK",Kd,[1],6.7 nM
same,% of binding vs wild-type fragment 15-37,[2],176%
same,% of binding vs wild-type fragment 15-37,[3],58.4%
same,% of binding vs wild-type fragment 15-37,[4],75.3%
same,% of binding vs wild-type fragment 15-37,[5],102%
same,% of binding vs wild-type fragment 15-37,[6],180%
same,% of binding vs wild-type fragment 15-37,[7],30.4%
same,% of binding vs wild-type fragment 15-37,[8],110%
same,% of binding vs wild-type fragment 15-37,[9],94.9%
same,% of binding vs wild-type fragment 15-37,[10],148%
same,% of binding vs wild-type fragment 15-37,[11],191%
same,% of binding vs wild-type fragment 15-37,[12],130%
same,% of binding vs wild-type fragment 15-37,[13],83.3%
same,% of binding vs wild-type fragment 15-37,[14],90.9%
same,% of binding vs wild-type fragment 15-37,[15],102%
same,% of binding vs wild-type fragment 15-37,[16],170%
same,ELISA absorbance 405 nm,[17],1.36 A405
same,ELISA absorbance 405 nm,[18],1.39 A405
same,ELISA absorbance 405 nm,[19],1.62 A405
same,ELISA absorbance 405 nm,[20],0.029 A405
same,binding result,[21],no binding (tested: 0-15% of wild-type binding)
same,binding result,[22],no binding (tested: 0-15% of wild-type binding)
same,binding result,[23],no binding (tested: 0-15% of wild-type binding)
same,binding result,[24],no binding (tested: 0-15% of wild-type binding)
same,binding result,[25],no binding (tested: 0-15% of wild-type binding)
same,binding result,[26],no binding (tested: 0-15% of wild-type binding)
same,ELISA absorbance 405 nm,[27],1.53 A405
same,ELISA absorbance 405 nm,[28],0.997 A405
same,ELISA absorbance 405 nm,[29],1.7 A405
same,ELISA absorbance 405 nm,[30],0.001 A405
same,binding result,[31],binds
same,"% survival (DM1 secondary-conjugate ADC surrogate assay, vs mouse IgG)",[32],54%
same,"% survival (DM1 secondary-conjugate ADC surrogate assay, vs mouse IgG)",[33],> 98%
